To fix the notation:
B1: CPSF7_HUMAN (protein, UniProt Q8N684 1-471, looked up)
Cleavage and polyadenylation …: MSEGVDLIDIYADEEFNQDPEFNNTDQIDLYDDVLTATSQPSDDRSSSTEPPPPVRQEPSPKPNNKTPAILYTYSGLRNRRAAVYVGSFSWWTTDQQLIQVIRSIGVYDVVELKFAENRANGQSKGYAEVVVASENSVHKLLELLPGKVLNGEKVDVRPATRQNLSQFEAQARKRECVRVPRGGIPPRAHSRDSSDSADGRATPSENLVPSSARVDKPPSVLPYFNRPPSALPLMGLPPPPIPPPPPLSSSFGVPPPPPGIHYQHLMPPPPRLPPHLAVPPPGAIPPALHLNPAFFPPPNATVGPPPDTYMKASAPYNHHGSRDSGPPPSTVSEAEFEDIMKRNRAISSSAISKAVSGASAGDYSDAIETLLTAIAVIKQSRVANDERCRVLISSLKDCLHGIEAKSYSVGASGSSSRKRHRSRERSPSRSRESSRRHRDLLHNEDRHDDYFQERNREHERHRDRERDRHH
B2: HNRPR_HUMAN (protein, UniProt O43390 2-633, looked up)
Heterogeneous nuclear …: ANQVNGNAVQLKEEEEPMDTSSVTHTEHYKTLIEAGLPQKVAERLDEIFQTGLVAYVDLDERAIDALREFNEEGALSVLQQFKESDLSHVQNKSAFLCGVMKTYRQREKQGSKVQESTKGPDEAKIKALLERTGYTLDVTTGQRKYGGPPPDSVYSGVQPGIGTEVFVGKIPRDLYEDELVPLFEKAGPIWDLRLMMDPLSGQNRGYAFITFCGKEAAQEAVKLCDSYEIRPGKHLGVCISVANNRLFVGSIPKNKTKENILEEFSKVTEGLVDVILYHQPDDKKKNRGFCFLEYEDHKSAAQARRRLMSGKVKVWGNVVTVEWADPVEEPDPEVMAKVKVLFVRNLATTVTEEILEKSFSEFGKLERVKKLKDYAFVHFEDRGAAVKAMDEMNGKEIEGEEIEIVLAKPPDKKRKERQAARQASRSTAYEDYYYHPPPRMPPPIRGRGRGGGRGGYGYPPDYYGYEDYYDDYYGYDYHDYRGGYEDPYYGYDDGYAVRGRGGGRGGRGAPPPPRGRGAPPPRGRAGYSQRGAPLGPPRGSRGGRGGPAQQQRGRGSRGSRGNRGGNVGGKRKADGYNQPDSKRRQTNNQQNWGSQPIAQQPLQQGGDYSGNYGYNNDNQEFYQDTYGQQWK
B3: SF3A3_HUMAN (protein, UniProt Q12874 1-501, looked up)
Splicing factor 3A subunit 3: METILEQQRRYHEEKERLMDVMAKEMLTKKSTLRDQINSDHRTRAMQDRYMEVSGNLRDLYDDKDGLRKEELNAISGPNEFAEFYNRLKQIKEFHRKHPNEICVPMSVEFEELLKARENPSEEAQNLVEFTDEEGYGRYLDLHDCYLKYINLKASEKLDYITYLSIFDQLFDIPKERKNAEYKRYLEMLLEYLQDYTDRVKPLQDQNELFGKIQAEFEKKWENGTFPGWPKETSSALTHAGAHLDLSAFSSWEELASLGLDRLKSALLALGLKCGGTLEERAQRLFSTKGKSLESLDTSLFAKNPKSKGTKRDTERNKDIAFLEAQIYEYVEILGEQRHLTHENVQRKQARTGEEREEEEEEQISESESEDEENEIIYNPKNLPLGWDGKPIPYWLYKLHGLNINYNCEICGNYTYRGPKAFQRHFAEWRHAHGMRCLGIPNTAHFANVTQIEDAVSLWAKLKLQKASERWQPDTEEEYEDSSGNVVNKKTYEDLKRQGLL
B4: TCPB_HUMAN (protein, UniProt P78371 2-535, looked up)
T-complex protein 1 subunit …: ASLSLAPVNIFKAGADEERAETARLTSFIGAIAIGDLVKSTLGPKGMDKILLSSGRDASLMVTNDGATILKNIGVDNPAAKVLVDMSRVQDDEVGDGTTSVTVLAAELLREAESLIAKKIHPQTIIAGWREATKAAREALLSSAVDHGSDEVKFRQDLMNIAGTTLSSKLLTHHKDHFTKLAVEAVLRLKGSGNLEAIHIIKKLGGSLADSYLDEGFLLDKKIGVNQPKRIENAKILIANTGMDTDKIKIFGSRVRVDSTAKVAEIEHAEKEKMKEKVERILKHGINCFINRQLIYNYPEQLFGAAGVMAIEHADFAGVERLALVTGGEIASTFDHPELVKLGSCKLIEEVMIGEDKLIHFSGVALGEACTIVLRGATQQILDEAERSLHDALCVLAQTVKDSRTVYGGGCSEMLMAHAVTQLANRTPGKEAVAMESYAKALRMLPTIIADNAGYDSADLVAQLRAAHSEGNTTAGLDMREGTIGDMAILGITESFQVKRQVLLSAAEAAEVILRVDNIIKAAPRKRVPDHHPC
B5: SYFA_HUMAN (protein, UniProt Q9Y285 2-508, looked up)
Phenylalanine--tRNA ligase …: ADGQVAELLLRRLEASDGGLDSAELAAELGMEHQAVVGAVKSLQALGEVIEAELRSTKHWELTAEGEEIAREGSHEARVFRSIPPEGLAQSELMRLPSGKVGFSKAMSNKWIRVDKSAADGPRVFRVVDSMEDEVQRRLQLVRGGQAEKLGEKERSELRKRKLLAEVTLKTYWVSKGSAFSTSISKQETELSPEMISSGSWRDRPFKPYNFLAHGVLPDSGHLHPLLKVRSQFRQIFLEMGFTEMPTDNFIESSFWNFDALFQPQQHPARDQHDTFFLRDPAEALQLPMDYVQRVKRTHSQGGYGSQGYKYNWKLDEARKNLLRTHTTSASARALYRLAQKKPFTPVKYFSIDRVFRNETLDATHLAEFHQIEGVVADHGLTLGHLMGVLREFFTKLGITQLRFKPAYNPYTEPSMEVFSYHQGLKKWVEVGNSGVFRPEMLLPMGLPENVSVIAWGLSLERPTMIKYGINNIRELVGHKVNLQMVYDSPLCRLDAEPRPPPTQEAA
B6: SF3B4_HUMAN (protein, UniProt Q15427 2-424, looked up)
Splicing factor 3B subunit 4: AAGPISERNQDATVYVGGLDEKVSEPLLWELFLQAGPVVNTHMPKDRVTGQHQGYGFVEFLSEEDADYAIKIMNMIKLYGKPIRVNKASAHNKNLDVGANIFIGNLDPEIDEKLLYDTFSAFGVILQTPKIMRDPDTGNSKGYAFINFASFDASDAAIEAMNGQYLCNRPITVSYAFKKDSKGERHGSAAERLLAAQNPLSQADRPHQLFADAPPPPSAPNPVVSSLGSGLPPPGMPPPGSFPPPVPPPGALPPGIPPAMPPPPMPPGAAGHGPPSAGTPGAGHPGHGHSHPHPFPPGGMPHPGMSQMQLAHHGPHGLGHPHAGPPGSGGQPPPRPPPGMPHPGPPPMGMPPRGPPFGSPMGHPGPMPPHGMRGPPPLMPPHGYTGPPRPPPYGYQRGPLPPPRPTPRPPVPPRGPLRGPLPQ
B7: SYCM_HUMAN (protein, UniProt Q6PI48 48-645, looked up)
Aspartate--tRNA ligase, …: VVRTNTCGELRSSHLGQEVTLCGWIQYRRQNTFLVLRDFDGLVQVIIPQDESAASVKKILCEAPVESVVQVSGTVISRPAGQENPKMPTGEIEIKVKTAELLNACKKLPFEIKNFVKKTEALRLQYRYLDLRSFQMQYNLRLRSQMVMKMREYLCNLHGFVDIETPTLFKRTPGGAKEFLVPSREPGKFYSLPQSPQQFKQLLMVGGLDRYFQVARCYRDEGSRPDRQPEFTQIDIEMSFVDQTGIQSLIEGLLQYSWPNDKDPVVVPFPTMTFAEVLATYGTDKPDTRFGMKIIDISDVFRNTEIGFLQDALSKPHGTVKAICIPEGAKYLKRKDIESIRNFAADHFNQEILPVFLNANRNWNSPVANFIMESQRLELIRLMETQEEDVVLLTAGEHNKACSLLGKLRLECADLLETRGVVLRDPTLFSFLWVVDFPLFLPKEENPRELESAHHPFTAPHPSDIHLLYTEPKKARSQHYDLVLNGNEIGGGSIRIHNAELQRYILATLLKEDVKMLSHLLQALDYGAPPHGGIALGLDRLICLVTGSPSIRDVIAFPKSFRGHDLMSNTPDSVPPEELKPYHIRVSKPTDSKAERAH

The test system of the test is KDM4A-I71AzF. Kind of test: CASI: photo-crosslinking with HEK293T cell extracts, StrepTactin enrichment and LC-MS/MS proteomics.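 Also: lysates from HEK293T cells pretreated with a KDM4 inhibitor to raise proteome methylation, affinity-purified after ±UV, gel-resolved, trypsin-digested, with exclusive unique peptides per protein averaged per condition.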 It is filed as binding, human. The settings on record: sheet "Final results but with 0.01".
B1: the “Fold change (+UV/-UV)” value came out at 1.

Regarding B2, the “Fold change (+UV/-UV)” value came out at 2.

On to B3, for which the “Fold change (+UV/-UV)” value was found to be 2.

For the molecule B4, the “Fold change (+UV/-UV)” value came to 1.

Take B5: the “Fold change (+UV/-UV)” value is on record as 4.

B6: the “Fold change (+UV/-UV)” value worked out at 0.75.

As for B7, the “Fold change (+UV/-UV)” value was found to be 1.

For the origin of these results see publication PMC10540216, “Activity Guided Azide-methyllysine Photo-trapping for Substrate Profiling of Lysine Demethylases” (Journal of the American Chemical Society, 2023).
